The results in this text go back to patent publication US20200277373A1, “ANTI-TREM2 ANTIBODIES AND METHODS OF USE THEREOF” (Denali Therapeutics Inc., priority 2017, published 2020).

The subject of test [1] is human macrophages. Put plainly: Signaling pathway Alpha-LISA (pSYK, pERK1/2, pGSK3-beta, pAKT) in human macrophages. The test is classed as cell-based. To be noted: 15 minutes. The procedure:
Anti-TREM2 antibodies were characterized for activation of several signaling pathways, SYK, ERK1/2, AKT and GSK3-beta. Human macrophages differentiated from peripheral monocytes were plated in 96-well plates at a density of 100,000 cell/well. The assay was tested in three conditions (0%, 0.5%, and 10% FBS in the media) for 3 hours. Cells were stimulated with the antibody RS9.F6, 24B4.A1, 8A11.B1, 3D3.A1, 54C2.A1, isotype control IgG2ak, rat anti-TREM2 from R&D, isotype control rat IgG2b, or no treatment (NT) for 15 minutes. The cell lysates were measured for p-Y525/526-SYK, p-T202/Y204-ERK1/2, p-S9-GSK3-beta, and p-S473-AKT using Alpha-LISA kits (Perkin Elmer). […] The antibodies stimulated p-GSK signal moderately (FIG. 6C).

In test [2] the target is T1, TREM2 (Homo sapiens, UniProt Q9NZC2).
T1 construct: expressed in transfected cells
T1 sequence (Q9NZC2 19-230): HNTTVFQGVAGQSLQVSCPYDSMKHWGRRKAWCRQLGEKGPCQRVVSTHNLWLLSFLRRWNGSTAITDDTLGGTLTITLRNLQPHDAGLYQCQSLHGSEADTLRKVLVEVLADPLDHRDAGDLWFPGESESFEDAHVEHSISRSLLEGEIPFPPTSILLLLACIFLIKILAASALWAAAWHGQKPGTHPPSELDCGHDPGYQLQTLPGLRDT
T1 sequence (O43914 22-113 partner): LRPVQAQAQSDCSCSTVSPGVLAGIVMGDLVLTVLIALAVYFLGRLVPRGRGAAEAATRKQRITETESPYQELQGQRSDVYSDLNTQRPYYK
In words: PAM and single point pSyk screen, HEK293 TREM2/DAP12 cells, antibody with or without PS/PC liposomes. It is filed as cell-based. How it is done:
Two days in advance of the experiment, HEK293 cells stably overexpressing TREM2 and DAP12 were plated at 40,000 cells/well on a 96 well poly-D-lysine-coated plate. In PAM experiments utilizing lipid vesicles, the lipid vesicles (see protocol below) were then mixed with the antibodies (at a constant concentration) on a 96-well plate using a Hamilton Nimbus liquid handler at a liposome concentration of 0, liposome EC20, EC50, or EC80 (see below) in PBS. In agonist experiments alone (no liposomes), antibodies were diluted without liposomes in PBS. The cells were washed 3× with HBSS with a Biotek 405/406 plate washer, then 50 μL of the liposome/antibody mixture was added per well using a Hamilton Nimbus liquid handler. The cell plate containing the liposome/antibodies was then transferred to a 37° C. incubator for 5 minutes. The liposome/antibody solution was removed by flicking the plate, and 40 μL lysis buffer (Cell Signaling Technologies, CST) was added using the liquid handler. […]
The liposomes were diluted in HBSS, and 50 μL of liposome solution was added per well to TREM2/DAP12-overexpressing cells using the Hamilton Nimbus liquid handler as in the above protocol. […] The pSyk response was measured as described above from 10 μL lysate, and the curve fit using a non-linear regression (4 parameter dose response) fit in Prism.

Test [3] addresses T1, TREM2. In words: FACS binning on human TREM2-HEK cells (competition with R&D antibody). The test is classed as binding. The settings on record: epitope bin, 100 nM antibody. The procedure: HEK293 overexpressing human TREM2 (H6) were harvested by 0.05% trypsin and incubated at 37° C. incubator for 2 hours for surface TREM2 recovery. After incubation, cells were washed with 1×PBS and FACS buffer (PBS+0.5% BSA) with human Trustain FcX solution (Biolegend, Cat #422302) was added at a density of 10^6/mL. Cells were seeded at 100,000 cells per well in a 96-well round-bottom and incubated 20 minutes at room temperature. After incubation, anti-TREM2 antibodies (100 nM) were added to the cells and the cells were incubated for 45 minutes on ice. After incubation, rat anti-h/mTREM2-APC antibody (1:100, R&D, Cat # FAB17291A) was added to the cells, and the cells were incubated for 30 minutes on ice. After incubation, cells were washed with FACS buffer three times and resuspended in 10 μL FACS buffer, then analyzed by flow cytometry (BD FACSCanto II, San Jose, Calif.). 20,000 events were obtained for each sample. The ability to compete with R&D antibody was determined by MFI analysis compared to isotype or buffer control wells.

For test [4], the target named is T1, TREM2. Put plainly: pSyk antagonist assay on HEK293 TREM2/DAP12 cells. The settings on record: FIGS. 9E-9G. It is filed as cell-based. The procedure:
These experiments were performed as follows. Two days in advance of the experiment, HEK293 cells stably overexpressing TREM2 and DAP12 were plated at 40,000 cells/well on a 96 well poly-D-lysine-coated plate. Antibodies diluted in DMEM alone were immediately added to the cells, and allowed to incubate for 30 minutes at 37° C. The antibodies were then removed. […] The liposome/antibody solution was removed, and 35 μL lysis buffer (Cell Signaling Technologies, CST) was added using the liquid handler. The lysate was then incubated at 4° C. for 30 minutes, then either frozen at −80° C. or immediately carried forward to a pSyk AlphaLISA assay as described above. The percent inhibition was calculated as in FIG. 9C.
FIGS. 9F and 9G show inhibition by 21D4 and 21D11, respectively, at increasing antibody concentrations. These experiments were performed similarly to those described in FIG. 9E.

B1: 3D3.A1: anti-TREM2 antibody clone; VH SEQ ID NO:18, VL SEQ ID NO:29 (antibody, V domains shown)
VH: EVQLQQSGPELVKPGASVKISCKTSGYTLSEYTMHWVIQSHGKSLEWIGGVIPNSGGTSYNQKFRDKASLTVDKSSSTAYLELRSLTSEDSAVYYCARGDDSYRRGYALDYWGQGTSVTVSS
VL: DIVMSQSPSSLAVSVGEKVTMSCKSSQSLLYSSNQKSYLAWYQQKPGQSPKLLIYWASTRESGVPDRFRGSGSGTDFTLTISSVKAEDLAVYYCQQYFSYPPTFGGGTKLEIK
B1: in test [1], the p-SYK signal entry is recorded as “robust” and the pERK1/2 signal entry is “robust”. In addition, the “interaction with lipid ligand to activate p-Syk (in words)” value in test [2] (FIG. 9A, 30 nM antibody, PS/PC liposomes, HEK cells) was “additive with lipid TREM2 activators”. For the same molecule, the “Bin by FACS” value in test [3] is reported as 3.

B2: 21D11: anti-TREM2 antibody clone; VH SEQ ID NO:14, VL SEQ ID NO:25 (antibody, V domains shown)
VH: QVQLQQSGAELARPGASVKLSCKASGYTFTSYWIQWVKQRPGQGLEWIGTIYPGDGDARYTQKFKGKATLTADKSSSTTYMQLNSLASEDSAVYYCARNGITTAGYYAMDYWGQGTSVTVSS
VL: DIQMTQSPASLSVSVGETVTITCRASENIYSNLAWYQQKQGRSPQLLVYAATNLADGVPSRFSGSGSGTQYSLKINSLQSEDFGYYYCQHFWGTPYTFGGGTKVEIK
Consider B2, for which, in test [4], the “inhibition of liposome mediated pSyk” value was “weaker antagonistic activity”. The “p-Syk induction by antibody alone (in words)” value in test [2] (no liposomes, HEK293 TREM2/DAP12) is “do not induce p-Syk”. For the same molecule, the “Bin by FACS” value in test [3] was 1-2.

B3: RS9.F6: anti-TREM2 antibody clone; VH SEQ ID NO:24, VL SEQ ID NO:35 (antibody, V domains shown)
VH: QVQLQQPGAELVKPGASVKLSCKASGYTFTSYWMHWVKQSPGRGLEWIGRSDPTTGGTNYNEKFKTKATLTVDKPSSTAYMQLSSLTSDDSAVYYCVRTSGTGDYWGQGTSLTVSS
VL: DVVMTQTPLSLPVSLGDQASISCRSSQSLVHNNGNTFLHWYLQKPGQSPKLLIYKVSNRFSGVPDRFSGSGSGTDFTLKISRVEAEDLGVYFCSQTTHVPPTFGGGTKLEIK
As for B3, in test [1], the p-SYK signal result is “robust” and the pERK1/2 signal entry is listed as “robust”.
